# Source: IntAct's records for PubMed 17540172
# B1: "Lethal(3)malignant brain tumor-like protein 1" (Homo sapiens), Q9Y468 (parent)
# chain: MHLVAGDSPGSGPHLPATAFIIPASSATLGLPSSALDVSCFPREPIHVGAPEQVAGCEPVSATVLPQLSAGPASSSTSTVRLLEWTEAAAPPPGGGLRFRISEYKPLNMAGVEQPPSPELRQEGVTEYEDGGAPAGDGEAGPQQAEDHPQNPPEDPNQDPPEDDSTCQCQACGPHQAAGPDLGSSNDGCPQLFQERSVIVENSSGSTSASELLKPMKKRKRREYQSPSEEESEPEAMEKQEEGKDPEGQPTASTPESEEWSSSQPATGEKKECWSWESYLEEQKAITAPVSLFQDSQAVTHNKNGFKLGMKLEGIDPQHPSMYFILTVAEVCGYRLRLHFDGYSECHDFWVNANSPDIHPAGWFEKTGHKLQPPKGYKEEEFSWSQYLRSTRAQAAPKHLFVSQSHSPPPLGFQVGMKLEAVDRMNPSLVCVASVTDVVDSRFLVHFDNWDDTYDYWCDPSSPYIHPVGWCQKQGKPLTPPQDYPDPDNFCWEKYLEETGASAVPTWAFKVRPPHSFLVNMKLEAVDRRNPALIRVASVEDVEDHRIKIHFDGWSHGYDFWIDADHPDIHPAGWCSKTGHPLQPPLGPREPSSASPGGCPPLSYRSLPHTRTSKYSFHHRKCPTPGCDGSGHVTGKFTAHHCLSGCPLAERNQSRLKAELSDSEASARKKNLSGFSPRKKPRHHGRIGRPPKYRKIPQEDFQTLTPDVVHQSLFMSALSAHPDRSLSVCWEQHCKLLPGVAGISASTVAKWTIDEVFGFVQTLTGCEDQARLFKDEARIVRVTHVSGKTLVWTVAQLGDLVCSDHLQEGKGILETGVHSLLCSLPTHLLAKLSFASDSQY
# Variants of: B1
# Conditions: with h14_human H1-4, P10412
# h14_human H1-4, P10412, sequence (P10412 whole entry): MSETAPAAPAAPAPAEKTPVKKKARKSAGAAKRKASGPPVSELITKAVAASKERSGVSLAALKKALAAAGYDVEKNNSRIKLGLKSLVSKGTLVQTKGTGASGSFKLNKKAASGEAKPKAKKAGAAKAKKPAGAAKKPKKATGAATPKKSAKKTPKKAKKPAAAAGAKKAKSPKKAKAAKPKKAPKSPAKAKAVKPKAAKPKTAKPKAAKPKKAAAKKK
row,Variant,effect of a mutation on the interaction
1,D423N,decreasing interaction

# Variants of: B1
# Conditions: with h4_human H4C16, P62805
row,Variant,effect of a mutation on the interaction
1,D423N,decreasing interaction

# Variants of: B1
# Conditions: with h14_human H1-4, P10412
# Remark: another data set of the same source
row,Variant,effect of a mutation on the interaction
1,F447A,decreasing interaction
